Measurements from the Human Domainome abundance scans (Beltran et al. 2025).
± gives the uncertainty stated by the source.

B1: Ankyrin-2, residues 3571 to 3650; numbered along this chain, Q01484 (parent)
chain: ERLAYIADHLGFSWTELARELDFTEEQIHQIRIENPNSLQDQSHALLKYWLERDGKHATDTNLVECLTKINRMDIVHLME

Variants of: B1
Test: abundance fitness (aPCA) (normalised: wild type 0, dead -1); higher = more abundant; growth selection in yeast, the domain comes from the species named
Settings: Homo sapiens

Row | Variant | abundance fitness
1 | ERLAYIADHLGFSWTELARELDFTEEQIHQIRIENPNSLQDQSHALLKYWLERDGKHATDTNLVECLTKDNRMDIVHLME | -0.533 ± 0.12
2 | ERLAYIADHLGFSWTELARELDFTEEQIHQIRIENPNSLQDQSHALLKYWLERDGKHATDTNLVECLTKLNRMDIVHLME | -0.065 ± 0.044
3 | ERLAYIADHLGFSWTELARELDFTEEQIHQIRIENPNSLQDQSHALLKYWLERDGKHATDTNLVECLTKVNRMDIVHLME | -0.035 ± 0.14
4 | ERLAYIADHLGFSWTELARELDFTEEQIHQIRIENPNSLQDQSHALLKYWLERDGKHATDTNLVECLTKKNRMDIVHLME | -0.784 ± 0.49
5 | ERLAYIADHLGFSWTELARELDFTEEQIHQIRIENPNSLQDQSHALLKYWLERDGKHATDTNLVECLTKMNRMDIVHLME | -0.002 ± 0.16
6 | ERLAYIADHLGFSWTELARELDFTEEQIHQIRIENPNSLQDQSHALLKYWLERDGKHATDTNLVECLTKANRMDIVHLME | -0.099 ± 0.07
7 | ERLAYIADHLGFSWTELARELDFTEEQIHQIRIENPNSLQDQSHALLKYWLERDGKHATDTNLVECLTKCNRMDIVHLME | -0.113 ± 0.075
8 | ERLAYIADHLGFSWTELARELDFTEEQIHQIRIENPNSLQDQSHALLKYWLERDGKHATDTNLVECLTKRNRMDIVHLME | -0.551 ± 0.064
9 | ERLAYIADHLGFSWTELARELDFTEEQIHQIRIENPNSLQDQSHALLKYWLERDGKHATDTNLVECLTKQNRMDIVHLME | -0.382 ± 0.18
10 | ERLAYIADHLGFSWTELARELDFTEEQIHQIRIENPNSLQDQSHALLKYWLERDGKHATDTNLVECLTKINAMDIVHLME | -0.205 ± 0.21
11 | ERLAYIADHLGFSWTELARELDFTEEQIHQIRIENPNSLQDQSHALLKYWLERDGKHATDTNLVECLTKINPMDIVHLME | -0.588 ± 0.093
12 | ERLAYIADHLGFSWTELARELDFTEEQIHQIRIENPNSLQDQSHALLKYWLERDGKHATDTNLVECLTKINWMDIVHLME | -0.659 ± 0.28
13 | ERLAYIADHLGFSWTELARELDFTEEQIHQIRIENPNSLQDQSHALLKYWLERDGKHATDTNLVECLTKINTMDIVHLME | -0.331 ± 0.29
14 | ERLAYIADHLGFSWTELARELDFTEEQIHQIRIENPNSLQDQSHALLKYWLERDGKHATDTNLVECLTKINVMDIVHLME | -0.568 ± 0.15
15 | ERLAYIADHLGFSWTELARELDFTEEQIHQIRIENPNSLQDQSHALLKYWLERDGKHATDTNLVECLTKINSMDIVHLME | 0.223 ± 0.26
16 | ERLAYIADHLGFSWTELARELDFTEEQIHQIRIENPNSLQDQSHALLKYWLERDGKHATDTNLVECLTKINGMDIVHLME | -0.204 ± 0.12
17 | ERLAYIADHLGFSWTELARELDFTEEQIHQIRIENPNSLQDQSHALLKYWLERDGKHATDTNLVECLTKINQMDIVHLME | -0.137 ± 0.16
18 | ERLAYIADHLGFSWTELARELDFTEEQIHQIRIENPNSLQDQSHALLKYWLERDGKHATDTNLVECLTKINLMDIVHLME | -0.187 ± 0.15

Row | Variant | abundance fitness
19 | ERLAYIADHLGFSWTELARELDFTEEQIHQIRIENPNSLQDQSHALLKYWLERDGKHATDTNLVECLTKIGRMDIVHLME | -0.014 ± 0.076
20 | ERLAYIADHLGFSWTELARELDFTEEQIHQIRIENPNSLQDQSHALLKYWLERDGKHATDTNLVECLTKIVRMDIVHLME | -0.252 ± 0.057
21 | ERLAYIADHLGFSWTELARELDFTEEQIHQIRIENPNSLQDQSHALLKYWLERDGKHATDTNLVECLTKICRMDIVHLME | -0.064 ± 0.14
22 | ERLAYIADHLGFSWTELARELDFTEEQIHQIRIENPNSLQDQSHALLKYWLERDGKHATDTNLVECLTKIMRMDIVHLME | -0.167 ± 0.096
23 | ERLAYIADHLGFSWTELARELDFTEEQIHQIRIENPNSLQDQSHALLKYWLERDGKHATDTNLVECLTKIKRMDIVHLME | -0.078 ± 0.12
24 | ERLAYIADHLGFSWTELARELDFTEEQIHQIRIENPNSLQDQSHALLKYWLERDGKHATDTNLVECLTKIYRMDIVHLME | -0.476 ± 0.36
25 | ERLAYIADHLGFSWTELARELDFTEEQIHQIRIENPNSLQDQSHALLKYWLERDGKHATDTNLVECLTKIERMDIVHLME | -0.153 ± 0.12
26 | ERLAYIADHLGFSWTELARELDFTEEQIHQIRIENPNSLQDQSHALLKYWLERDGKHATDTNLVECLTKITRMDIVHLME | -0.18 ± 0.078
27 | ERLAYIADHLGFSWTELARELDFTEEQIHQIRIENPNSLQDQSHALLKYWLERDGKHATDTNLVECLTKIRRMDIVHLME | -0.031 ± 0.073
28 | ERLAYIADHLGFSWTELARELDFTEEQIHQIRIENPNSLQDQSHALLKYWLERDGKHATDTNLVECLTKIDRMDIVHLME | -0.054 ± 0.17
29 | ERLAYIADHLGFSWTELARELDFTEEQIHQIRIENPNSLQDQSHALLKYWLERDGKHATDTNLVECLTKIHRMDIVHLME | -0.163 ± 0.13
30 | ERLAYIADHLGFSWTELARELDFTEEQIHQIRIENPNSLQDQSHALLKYWLERDGKHATDTNLVECLTKIFRMDIVHLME | -0.343 ± 0.15
31 | ERLAYIADHLGFSWTELARELDFTEEQIHQIRIENPNSLQDQSHALLKYWLERDGKHATDTNLVECLTKISRMDIVHLME | -0.028 ± 0.065
32 | ERLAYIADHLGFSWTELARELDFTEEQIHQIRIENPNSLQDQSHALLKYWLERDGKHATDTNLVECLTKIARMDIVHLME | 0.021 ± 0.099
33 | ERLAYIADHLGFSWTELARELDFTEEQIHQIRIENPNSLQDQSHALLKYWLERDGKHATDTNLVECLTKIWRMDIVHLME | -0.355 ± 0.093
34 | ERLAYIADHLGFSWTELARELDFTEEQIHQIRIENPNSLQDQSHALLKYWLERDGKHATDTNLVECLTKIPRMDIVHLME | -0.135 ± 0.057
35 | ERLAYIADHLGFSWTELARELDFTEEQIHQIRIENPNSLQDQSHALLKYWLERDGKHATDTNLVECLTKILRMDIVHLME | -0.196 ± 0.055
